Reference: patent US20150328292A1, “CASPASE POLYPEPTIDES HAVING MODIFIED ACTIVITY AND USES THEREOF” (BELLICUM PHARMACEUTICALS, INC., priority 2014, published 2015)
“Also recorded” adds a separate entry of the source. Where a SMILES comes first, the peptide text is derived from it. The star is where a group is joined. Cbz = O=C(OCc1ccccc1)*; CH2F = FC*

B1: D330E: chimeric modified caspase-9 polypeptide variant (protein)
chain: VDGFGDVGALESLRGNADLAYILSMEPCGHCLIINNVNFCRESGLRTRTGSNIDCEKLRRRFSSLHFMVEVKGDLTAKKMVLALLELARQDHGALDCCVVVILSHGCQASHLQFPGAVYGTDGCPVSVEKIVNIFNGTSCPSLGGKPKLFFIQACGGEQKDHGFEVASTSPEDESPGSNPEPDATPFQEGLRTFDQLEAISSLPTPSDIFVSYSTFPGFVSWRDPKSGSWYVETLDDIFEQWAHSEDLQSLLLRVANAVSVKGIYKQMPGCFNFLRKKLFFKTSASRA
B2: D330A: ΔCasp9 (res. 135-416) D330A, SEQ ID NO: 24 (protein)
chain: GFGDVGALESLRGNADLAYILSMEPCGHCLIINNVNFCRESGLRTRTGSNIDCEKLRRRFSSLHFMVEVKGDLTAKKMVLALLELARQDHGALDCCVVVILSHGCQASHLQFPGAVYGTDGCPVSVEKIVNIFNGTSCPSLGGKPKLFFIQACGGEQKDHGFEVASTSPEDESPGSNPEPDATPFQEGLRTFDQLAAISSLPTPSDIFVSYSTFPGFVSWRDPKSGSWYVETLDDIFEQWAHSEDLQSLLLRVANAVSVKGIYKQMPGCFNFLRKKLFFKTS

Legend:
[1] = system: F-Casp9M.I.GFPhigh-transduced T cells; test: annexin-V/7-AAD staining of CID-treated transduced CTLs; type: cell-based, human; settings: 100 μM for 1 hour prior to adding CID
Protocol: CID (AP20187; ARIAD Pharmaceuticals) at indicated concentrations was added to transfected 293T cells or transduced CTLs. Adherent and nonadherent cells were harvested and washed with annexin binding buffer (BD Pharmingen, San Jose, Calif.). Cells were stained with annexin-V and 7-amino-actinomycin D (7-AAD) for 15 minutes according to the manufacturer's instructions (BD Pharmingen). Within 1 hour after staining, cells were analyzed by flow cytometry using CellQuest software (Becton Dickinson).

human CD3+CD19+ T cells = test: AP1903 dose-dependent elimination in vivo of transduced T cells in NSG mice; set-up: species or system mouse; settings: NSG mice, AP1903 0-5 mg/kg i.p., spleen
Protocol: T cells were transduced with SFG-iCasp9-2A-ΔCD19 retrovirus and injected i.v. into immune deficient mice (NSG). […] After an additional 24 hours, mice were sacrificed and lymphocytes from the spleen (FIG. 61A) and peripheral blood (FIG. 61B) were isolated and analyzed by flow cytometry for the frequency of human CD3+CD19+ T cells.
T cells were transduced with SFG-iCasp9-D330E-2A-ΔCD19 retrovirus and injected i.v. into immune deficient mice (NSG). […] After an additional 24 hours, mice were sacrificed and lymphocytes from the spleen (A) were isolated and analyzed by flow cytometry for the frequency of human CD3+CD19+ T cells.

PG13 packaging cells = type: cell-based
HEK293T/16 cells = test: SEAP reporter-based surrogate killing assay (basal activity and AP1903 IC50); type: cell-based, human; settings: for basal activity / basal signaling (in words): AP1903-independent SEAP activity, vs wild type; for relative SEAP activity Units (basal activity): no AP1903, higher SEAP = lower basal activity
Protocol: FIG. 45 provides a schematic of an analysis of SEAP assays. […] of the mixture was seeded onto each well of a 96-well plate. […] For the assay, 4-methylumbelliferyl phosphate substrate was hydrolyzed by SEAP to 4-methylumbelliferon, a metabolite that can be excited with 364 nm and detected with an emission filter of 448 nm. Since SEAP is used as a marker for cell viability, reduced SEAP reading corresponds with increased icaspase-9 activities.
Early passage HEK293T/16 cells (ATCC, Manassas, Va.) were maintained in IMDM, GlutaMAX™ (Life Technologies, Carlsbad, Calif.) supplemented with 10% FBS, 100 U/mL penicillin, and 100 […] until transfection in a humidified, 37° C., 5% CO2/95% air atmosphere. Cells in logarithmic-phase growth were transiently transfected with 800 ng to 2 μg of expression plasmid encoding iCasp9 mutants and 500 ng of an expression plasmid encoding SRα promoter driven SEAP per million cells in 15-mL conical tubes. […] GeneJammer® Transfection Reagent at a ratio of 3 μl per ug of plasmid DNA was used to transiently transfect HEK293T/16 cells in the absence of antibiotics. 100 μl or 2 mL of the transfection mixture was added to each well in 96-well or 6-well plate, respectively.
Briefly, after 65° C. heat denaturation for 45 minutes to reduce background caused by endogenous (and serum-derived) alkaline phosphatases that are sensitive to heat, 5 μl of supernatants was added to 95 μl of PBS and added to 100 μl of substrate buffer, containing 1 μl of 100 mM 4-methylumbelliferyl phosphate (4-MUP; Sigma, St. Louis, Mo.) re-suspended in 2 M diethanolamine. Hydrolysis of 4-MUP by SEAP produces a fluorescent […] with excitation/emission (355/460 nm), which can be easily measured. Assays were performed in black opaque 96-well plates to minimize fluorescence leakage between wells (FIG. 45).

Activated T cells = test: Control of T cell proliferation in vitro over 10 days with AP1903; type: cell-based, human; settings: AP1903 on days 0 and 4, 10 days

Molecule | effect on CID-induced apoptosis [1] | in vivo cytotoxicity profile in response to AP1903 (human CD3+CD19+ T cells) | CD19 mean fluorescence intensity (MFI) of transduced PG13 cells (PG13 packaging cells) | viral titers (PG13 packaging cells) | basal activity / basal signaling (in words) (HEK293T/16 cells) | T cell proliferation and survival (Activated T cells) | relative SEAP activity Units (basal activity) (HEK293T/16 cells; 1 μg iCasp9 per million cells) | relative SEAP activity Units (basal activity) (HEK293T/16 cells; 2 μg iCasp9 per million cells)
COC(=O)C[C@H](NC(=O)[C@H](C)NC(=O)[C@@H](NC(=O)OCc1ccccc1)C(C)C)C(=O)CF [zVAD-fmk] (Cbz-Val-Ala-Asp(OMe)-CH2F) | inhibited |  |  |  |  |  |  | 
B1 |  | titratable in vivo | enhanced CD19 mean fluorescence intensity | higher viral titers | less basal activity than wild type caspase-9; also recorded: statistically lower basal signaling |  |  | 
B2 |  |  | enhanced CD19 mean fluorescence intensity | higher viral titers | low to undetectable basal activity; also recorded: lowered basal activity, but not as low as in N405Q; also recorded: less basal activity than wild type caspase-9; also recorded: lower basal activity; also recorded: lower basal signaling compared to the wild-type caspase-9; also recorded: statistically lower basal signaling | halted T cell proliferation | 148928 | 136863
